In US20200397860A1, “SLIT AND BONE GROWTH MODULATION” (Cornell University, priority 2018, published 2020):

Legend:
[1] = tested on: bone marrow endothelial progenitor outgrowth cells (EPOCs); test: Matrigel tube formation assay; type: cell-based, mouse; conditions: for tube formation (tube branch numbers): EPOCs on Matrigel
Procedure: Mouse bone marrow derived late-stage endothelial progenitor outgrowth cells (EPOCs) were obtained from BioChain (7030031) and cultured in growth medium (BioChain Z7030035) as described previously (Xie et al. 2014). Endothelial cell migration assay was set up in Trans well-24 well plates with 8-um pore filters. Briefly, 1×10^5 cells/well after 1-hour serum starvation were seeded in the upper chamber, then incubated with conditioned medium from osteoblasts and control in the lower chambers for a further 3 h. The cells in the upper surface of each filter were removed with cotton swabs. The cells that migrated into the lower surface were fixed with 4% PFA for 30 min and then stained with crystal violet. The cell numbers were quantified by counting a centered microscope field per each filter (5 wells for each condition). Endothelial cell wound healing assays were conducted in 12-well plates precoated with gelatin (Stemcell Technologies). 3×10^5 cells/well were plated overnight and stimulated with a wound in the form of a single linear scratch made with a yellow pipette tip. After gently washing the well twice, cells were cultured in medium with SLIT3 or vehicle. At 6 and 12 hours after injury, cells were stained by 0.5% crystal violet and photographed. The width of the wound area was quantitatively evaluated using ImageJ (see website at rsb.info.uih.gov/ij/download.html). Endothelial cell proliferation assays were conducted in 96-well plates pre-coated with gelatin (Stemcell Technologies). EPOCs (3×10^4 cells/well) were seeded in the medium with a serial dilution of SLIT3 protein or vehicle in plates. At 0, 24, 48 hours after seeding, cells were incubated with 10-fold diluted Alamar Blue solution (Thermo Fisher) and the supernatant was evaluated with a spectrophotometer (Thermo) (5 wells for each condition). Endothelial cell tube formation assay was conducted in 96-well plates pre-coated with Matrigel (BD). After 1 h serum starvation, EPOCs (3×10^4 cells/well) were seeded in conditioned medium dilution or control medium on polymerized Matrigel in plates. Alter 5 hours incubation at 37° C., the number of tube branches each well was observed and quantified by counting four random fields per well with microscopy (5 wells for each condition).

[2] = tested on: bone marrow endothelial cells; test: Immunoblot of YAP, AKT and ERK phosphorylation after SLIT3 treatment; type: cell-based, mouse
Procedure: Western blot analysis was performed according to a previously described standard protocol. (Greenblatt et al. 2016) Primary antibodies were specific for SLIT3 (1:500; R&D Systems, AF3629), ROBO1 (1:500; Abeam, ab7279), ROBO2 (1:1000; Abcam, ab75014), YAP (1:1,000; Cell Signaling, 4912), p-YAP (1:1,000; Cell signaling, 4911), AKT (1:1,000; Cell Signaling, 4691), p-AKT (1:1,000; Cell Signaling, 4060), ERK (1:1,000; Cell Signaling, 9102), p-ERK (1:1,000; Cell Signaling, 9101) and beta-actin (1:5,000, sc-47778, Santa Cruz) or Hsp90 (1:1000; sc-13119, Santa Cruz). Secondary anti-mouse/rabbit HRP-conjugated antibodies were subsequently applied.

[3] = tested on: fracture site; test: Femoral fracture model, local delivery of SLIT3 into the fracture site; type: in vivo, mouse
Procedure: Micro-CT (μCT) analysis was conducted on a Scanco Medical μCT 35 system at the Citigroup Biomedical Imaging Core using the previously described parameters. (Shim et al. 2013). μCT analysis was performed by an investigator blinded to the genotypes of the animals under analysis.
For whole-mount immunostaining, retinas were collected from adult mice after systemic or local SLIT3 administration in bone fracture models.
Bone fracture was done following previously described protocols with modifications (Bradaschia-Correa et al. 2017). In brief, after anesthesia and surgical site sterilization, an incision above the right anterolateral femur was made. The femur and patella were then exposed, and a 27-gauge syringe needle was inserted parallel with the long axis of the femur through the patellar groove into the marrow cavity. The needle was then removed, and a single cut was made in the middle of the femoral diaphysis using a dremel saw with a diamond thin cutting wheel (VWR, Cat #100230-724). A blunt 25-gauge needle was then inserted into the marrow space through the hole made in the patella to stabilize the fracture. The needle was then trimmed to avoid it from projecting into the patella-femoral joint space. Muscle was then placed over the osteotomy site and stitched with absorbable sutures prior to closing the skin with wound clips.
Alternatively, the gelatin sponge was manually soaked with SLITS (300 ug/ml in PBS) or vehicle for 1 hour on ice and immediately placed to the surgical fracture area. All animals were euthanized by CO2 at time points indicated.
All bones were tested to failure using four-point bending on a precision electromagnetic-based load frame (EnduraTEC ELF 3200, Bose Corporation, Minnetonka, MC). Femurs were placed with the posterior surface on the lower supports, spaced 9.9 mm apart. The upper supports were spaced 3.3 ram. Load was applied at a rate of 0.1 mm/s until failure occurred. The failure load (N) and bending stiffness […] within the elastic range were calculated from the force-displacement curves and the four-point dimensions.

[4] = tested on: bone marrow macrophages (BMMs); test: In vitro osteoclast formation assay with RANKL and recombinant SLIT3; type: cell-based, mouse
Procedure: Murine bone marrow cells were flushed from the femur and tibia of mice and cultured in petri dishes in α-MEM medium with 10% FBS and 20 ng/ml of rM-CSF. Nonadherent cells were replated into tissue culture dishes and cultured in the same medium for 3 d to obtain osteoclast precursors. The osteoclast precursors then differentiated into osteoclasts in the presence of human RAMKL (50 ng/ml; PeproTech) and M-CSF for 3 days. Peripheral blood mononuclear cells from the whole blood of healthy volunteers were isolated by density gradient centrifugation using Ficoll (Invitrogen, Carlsbad, Calif.). CD14-positive cells were purified from fresh PBMCs using anti-CD14 magnetic beads (Miltenyi Biotec, Auburn, Calif.), as recommended by the manufacturer. Human monocytes were cultured in a-MEM with 10% FBS in the presence of M-CSF (20 ng/ml; PeproTech, Rocky Hill, N.J.) for 2 d to obtain monocyte-derived macrophages. Experiments with human cells were approved by the Hospital for Special Surgery Institutional Review Board.
Osteoclast culture, differentiation assays. Western Molting and qPCR. In vitro primary osteoclast cultures, quantitative PCR, Western blotting, and TRAP staining were performed as previously described. Primary antibodies were specific for SLIT3. (1:1,000; Cell Signaling) and HSP90 (1:2,000; Sigma).

[5] = EPOCs transduced with Robo1 shRNA

B1: SLIT3: SLIT3 recombinant protein (R&D); secreted ligand of ROBO receptors (protein, UniProt O75094 34-1523, looked up)
Slit homolog 3 protein: CPTKCTCSAASVDCHGLGLRAVPRGIPRNAERLDLDRNNITRITKMDFAGLKNLRVLHLEDNQVSVIERGAFQDLKQLERLRLNKNKLQVLPELLFQSTPKLTRLDLSENQIQGIPRKAFRGITDVKNLQLDNNHISCIEDGAFRALRDLEILTLNNNNISRILVTSFNHMPKIRTLRLHSNHLYCDCHLAWLSDWLRQRRTVGQFTLCMAPVHLRGFNVADVQKKEYVCPAPHSEPPSCNANSISCPSPCTCSNNIVDCRGKGLMEIPANLPEGIVEIRLEQNSIKAIPAGAFTQYKKLKRIDISKNQISDIAPDAFQGLKSLTSLVLYGNKITEIVKGLFDGLVSLQLLLLNANKINCLRVNTFQDLQNLNLLSLYDNKLQTISKGLFAPLQSIQTLHLAQNPFVCDCHLKWLADYLQDNPIETSGARCSSPRRLANKRISQIKSKKFRCSGSEDYRSRFSSECFMDLVCPEKCRCEGTIVDCSNQKLVRIPSHLPEYVTDLRLNDNEVSVLEATGIFKKLPNLRKINLSNNKIKEVREGAFDGAASVQELMLTGNQLETVHGRVFRGLSGLKTLMLRSNLIGCVSNDTFAGLSSVRLLSLYDNRITTITPGAFTTLVSLSTINLLSNPFNCNCHLAWLGKWLRKRRIVSGNPRCQKPFFLKEIPIQDVAIQDFTCDGNEESSCQLSPRCPEQCTCMETVVRCSNKGLRALPRGMPKDVTELYLEGNHLTAVPRELSALRHLTLIDLSNNSISMLTNYTFSNMSHLSTLILSYNRLRCIPVHAFNGLRSLRVLTLHGNDISSVPEGSFNDLTSLSHLALGTNPLHCDCSLRWLSEWVKAGYKEPGIARCSSPEPMADRLLLTTPTHRFQCKGPVDINIVAKCNACLSSPCKNNGTCTQDPVELYRCACPYSYKGKDCTVPINTCIQNPCQHGGTCHLSDSHKDGFSCSCPLGFEGQRCEINPDDCEDNDCENNATCVDGINNYVCICPPNYTGELCDEVIDHCVPELNLCQHEAKCIPLDKGFSCECVPGYSGKLCETDNDDCVAHKCRHGAQCVDTINGYTCTCPQGFSGPFCEHPPPMVLLQTSPCDQYECQNGAQCIVVQQEPTCRCPPGFAGPRCEKLITVNFVGKDSYVELASAKVRPQANISLQVATDKDNGILLYKGDNDPLALELYQGHVRLVYDSLSSPPTTVYSVETVNDGQFHSVELVTLNQTLNLVVDKGTPKSLGKLQKQPAVGINSPLYLGGIPTSTGLSALRQGTDRPLGGFHGCIHEVRINNELQDFKALPPQSLGVSPGCKSCTVCKHGLCRSVEKDSVVCECRPGWTGPLCDQEARDPCLGHRCHHGKCVATGTSYMCKCAEGYGGDLCDNKNDSANACSAFKCHHGQCHISDQGEPYCLCQPGFSGEHCQQENPCLGQVVREVIRRQKGYASCATASKVPIMECRGGCGPQCCQPTRSKRRKYVFQCTDGSSFVEEVERHLECGCLACS
- tube formation (tube branch numbers) [1]: enhanced
- tube formation (tube branch numbers) ([1]; listed as Slit3): increases with increased Slit3
- tube formation capacity in response to ligand after Robo1 knockdown [1, 5]: impaired their response
- ability to induce tube formation after shRNA-mediated knockdown of YAP ([1]; EPOCs transduced with YAP shRNA): significantly reduced the ability
- phosphorylation of YAP in response to ligand after Robo1 knockdown [2, 5]: impaired their response
- signaling pathways downstream of SLIT3 (YAP, AKT, ERK phosphorylation) ([2]; mouse EPOCs after serum starvation): induces activation of Hippo and ERK MAPK pathway signaling
- fracture healing, local delivery ([3]; implanted at fracture site): enhances bone-fracture healing
- non-skeletal vascular abundance or morphology ([3]; local delivery): did not impact
- brain ultrastructure ([3]; mouse, in vivo): did not impact
- number of TRAP positive osteoclasts compared with controls ([4]; BMMs with RANKL and recombinant SLIT3, three days): no significant changes
- expression of osteoclast marker genes ([4]; BMMs with RANKL, three days): modestly inhibited
